Tests used:
Assay in all cases: ELISA on coated viral particles
[1] = molecular target: Influenza virus A/Brisbane/59/2007 (H1N1) (Influenza A virus A/Brisbane/59/2007 (H1N1))
[2] = molecular target: Influenza virus A/California/7/2009pdm (H1N1pdm) (Influenza A virus A/California/7/2009pdm (H1N1pdm))
[3] = molecular target: Influenza virus A/New Caledonia/20/1999 (H1N1) (Influenza A virus A/New Caledonia/20/1999 (H1N1))
[4] = molecular target: Influenza virus A/Panama/2007/1999 (H3N2) (Influenza A virus A/Panama/2007/1999 (H3N2))

Binder	Binding activity (absorbance at 492 nm) [1]	Binding activity (absorbance at 492 nm) [2]	Binding activity (absorbance at 492 nm) [3]	Binding activity (absorbance at 492 nm) [4]
Group 47 representative clone F083-308, Fab-cp3-type antibody (Fab, V domains shown) VH: QVQLVQSGAEVKKPGSSVKVSCKASGGIFRSHAISWVRQAPGQGLEWMGGIIAIFGTTHYAQQFQGRVTITADESTSTVYMELSTLRSEDTAVYYCARGPNYFESYFDNWGQGTLVTVSS VL: EIVLTQSPATLSLSPGERATLSCRASQTISSYLAWYQQKPGQAPRLLIYGASNRATGIPARFSGSGSGTDFTLTINSLEPEDFAVYYCQQRSSWPPITFGQGTRLEIK	1.82	1.21	1.79	0.16
Group 65 representative clone F083-366, Fab-cp3-type antibody (Fab, V domains shown) VH: QVQLVQSGSEVKKPGSSVKVSCKASRGIFSSYAISWVRQAPGQGLEWMGAVIPMFGTLKYAENFQGRITISADKSMSAAYMELSSLRSEDTAVYYCARNYYGSGTYFNDAFDIWGQGTMVTVSS VL: QSVLTQPPSGSGAPGQRVTISCTGGNSNIGAGYDVNGYQQLPGKAPKLLIYGNNNRPSGVPDRFSGSKSGTSASLAITGLQVEDEAHYYCQSYDNGLSGSVFGGGTQLTVLG	2.84	1.13	2.93	0.18
Group 52 representative clone F083-328, Fab-cp3-type antibody (Fab, V domains shown) VH: QVQLVQSGAEVKKPGSSVKLSCKASGGTLRSYALSWVRQAPGEGLEWMGGISAIFNTATYAQNVQGRVTITADESTNTFYLEVSSLRSDDTAVYYCATSGTYYVSFFDYWGQGTLVTVSS VL: DIVLTQSPSTLSASVGDRVTLTCRASQSIGSLMAWYQQQPGKPPKLLIYRASNLETGVPSRFTGSGSGTEFALTISSLQPDDVGTYYCQHFKTFSRTFGQGTKVEIK	2.43	2.02	2.66	0.22
Group 35 representative clone F082-117, Fab-cp3-type antibody (Fab, V domains shown) VH: QVQLVQSGSEVKKPGSSVKVSCKSSGGILRRSAISWVRQAPGQGLEWMGGILAIFGTTKYAQKFQGRITITADESTNTVHMELSSLRPDDTAVYYCAGGPHYYVSYFDSWGQGTLVTVSS VL: DIQMTQSPATLSLSPGERATLSCRASQSVRSYLAWYQQKPGQAPRLLIYDASNRATGIPARFSGSGSGTEFTLTISRLEPEDFAVYYCQQRSNWLFTFGPGTKVDFK	3.26	3.11	3.35	0.15
Group 3 representative clone F081-281, Fab-cp3-type antibody (Fab, V domains shown) VH: QVQLVQSGSEVKKPGSSVKVSCSFKASGGIISKYAITWVRQAPGQGLEWMGGIIAIFGSTNYAQKFQGRLTITSDESTSTAYMELSSLTSEDTAVYYCGRGPHYYESHLDYWGQGTLVTVSS VL: EIVLTQSPGTLSLSPGERATLSCRASQGMSSSFLAWYQQKPGQPPRLLISGASTRATGIPDRFSGSGSGTDFTLTINRLEPEDFAVYYCQQYGSSPRTFGQGTKVEIK	2.98	2.87	2.86	0.18
Group 37 representative clone F083-311, Fab-cp3-type antibody (Fab, V domains shown) VH: QVQLVQSGSEVKKPGSSVKVSCKASGGIFRTNAISYVRQAPGQGLEWMGGITAIFGTPNYAQKFQGRVTIIADESTSTVYMELGSLTSEDTAVYYCATSGTYYVSYFDSWGQGTLVTVSS VL: DIVMTQSPGTLTLSPGERATLSCRASQSLYSSHLAWYQQKPGQPPRLLIYGASTRAPGTPDRFSGSGSGTDFTLTITALDPEDSAVYYCQQYGSSPITFGQGTRLEIK	2.64	1.82	2.59	0.15
Group 1 representative clone F080-227, Fab-cp3-type antibody (Fab, V domains shown) VH: QVQLQESGAEVKKPGSSVKVSCKASGGIFRRNAISWVRQAPGQGLEWMGGIIAIFGTANYAQKFQGRVTITADESTSTVYMELSSLRPEDTAVYYCARGPNYYENFFDYWGQGTLVTVSS VL: DIVMTQSPSSLSASVGDRLDLTCRASQDIANSLAWYKQRPGKAPELLVFGASRLEGGVPSRFSGTRAGTDFTLTISSLQPEDLGTYFCQQYFSFPRTFGQGTTLDLR	3.1	2.95	3.15	0.14
Group 2 representative clone F082-220, Fab-cp3-type antibody (Fab, V domains shown) VH: QVQLVQSGAEVKKPGSSVKVSCKASGGIFRSNAVSWVRQAPGQGLEWMGGIIAIFGTPKYAQKFQGRVTITADESTSTVYMELSGLRYEDTAVYYCARGPNYYESYFDYWGQGTLVTVSS VL: DIVMTQSPPSLSASVGDRVTITCRASQGISNYLAWYQQKPGKAPKLLIFGASTLHSGVSSRFSGSGSGPDFTLTISSLQPEDAATYYCQKYHSAPLTFGGGTKVEMK	3.15	2.72	3.37	0.16
Group 36 representative clone F082-243, Fab-cp3-type antibody (Fab, V domains shown) VH: QVQLQQSGAEVKKPGSSVKVSCKASGGIFRKNAISWVRQAPGQGLEWMGGIIAIFGTANYAQKFQGRVTITADDSTNTVYMELTSLRYEDTAVYYCARGPNYYENYFDFWGQGTLVTVSS VL: EIVLTQSPSSLSASLRDTVTITCRTSQAITNYLAWYQQRPGKAPKLLIYAASVLQSGVPSRFSGSGSGTDFTLTISSLQPEDFATYYCQKYDSAPYTFGQGTKLEIK	1.05	0.8	0.96	0.13
Group 44 representative clone F081-008, Fab-cp3-type antibody (Fab, V domains shown) VH: QVQLVQSGAEVKKPGSSVKVSCKASGGTFSSFSTYTISWVRQAPGQGLEWMGRSIPLLGITNYAQKFQGRVTITADISTSTAYMELSSLRSEDTAVYYCARYQSSDYYNSEYFQHWGQGTLVTVSS VL: EIVLTQSPGTLSLSLGERVTLSCRASQNVGTNYLAWYQQKPGQAPRLLIYGASSRATGVPDRFSGSGSGTDFTLTISRLAPEDFAVYYCQQYSSSPLTFGGGTKLEIK	2.89	0.43	3.25	0.17
Group 39 representative clone F082-237, Fab-cp3-type antibody (Fab, V domains shown) VH: QVQLVQSGAEVKKPGSSVKVSCKASGGIFNKYGISWVRQAPGQGLEWMGGILAIFGTTNYAQKFQGRVTISADESSTTVYMELSSLTSEDTAVYYCARGNTYYSSYFDQWGQGTLVTVSS VL: QSVLTQPPSVSVAPGQTATITCGGDKIGTGPVHWYQQMPGRAPVLLIYASTHRPSRIPERFSGSKSDNTATLSISGVGVGDEADYYCQMWDSSSVHPIVFGGGTKLTVLS	1.95	2.62	1.94	0.13
Group 54 representative clone F083-354, Fab-cp3-type antibody (Fab, V domains shown) VH: QVQLVQSGSEVKKPGSSVKVSCKASGGIFNSYGISWVRQAPGQGLEWMGGILAIFGTTNYAQKFQGRVTITADDSSKTVYMELSSLTSEDTAVYYCARGSTYYSSYFDQWGQGTLVTVSS VL: DIQMTQSPSSLSASVGDRVTITCRASQGIRNSLAWYQQKPGQVPKLLIYSATTLRSGVPYRFSGSGSGTDFTLTISGLQPEDVGTYFCHRYDSAPLTFGGGTRVALK	3.01	2.54	3.05	0.16
Group 48 representative clone F083-389, Fab-cp3-type antibody (Fab, V domains shown) VH: QVQLVQSGAEVKKPGSSVKVSCKASGDIFNKFAITWVRQAPGQGLEWMGGITALFATTSYAQKFQDRVTINWDESTTTAFMELSSLRFEDTAVYYCARGPNYYETYLDNWGQGTLVTVSS VL: EIVLTQSPTILSASVGDRVTITCRASQSISKWLAWYQQKPGKVPKLLIYMASTLESGVPSRFSGSGSGSEFTLTISSLQPGDFATYYCQQYNSYPRTFGQGTKVEINV	2.83	2.49	2.72	0.14

Source: US20160200799A1
